The test deals with T1, N-terminal portion of N-WASP (1st to 275th amino acid residues) fused to the Gal4 activation domain (pACT2) (UniProt Q95107 1-275).
T1 construct: range 1-275; Yeast two-hybrid prey; also called CRIB-motif-containing N-terminal portion of N-WASP; N-WASP CRIB motif
Nature of the test: yeast two-hybrid, beta-galactosidase colony-lift filter assay. The source says: The cDNAs encoding the wild-type, constitutively active, and dominant-negative mutants of Cdc42, Tc10, and RhoT were ligated to the Gal4 DNA-binding domain of the pGBT9 vector (Clontech). A cDNA fragment encoding the N-terminal portion of N-WASP (corresponding to 1st to 275th amino acid residues) (EMBO J. 15: 5326-5335 (1996), Nature 391: 93-96 (1998)) was fused to the Gal4 activation domain of pACT2 vector (Clontech) The yeast strain Y190 was sequentially transformed with the bait and prey plasmids. Double transformants were selected on plates of minimal synthetic dropout medium lacking leucine and tryptophan (SD/-Leu/-Trp). The activation of lacz reporter gene was analyzed by β-galactosidase colony-lift filter assay.
Cdc42 generates filopodia through binding to the CRIB motif (J. Biol. Chem. 270: 29071-29074 (1995)) of its target protein N-WASP, which activates Arp2/3-complex- and profilin-mediated actin polymerization (EMBO J. 15: 5326-5335 (1996), Nature 391: 93-96 (1998), Cell 97: 221-231 (1999)). To determine whether Tc10 and RhoT also bound to N-WASP, the yeast two-hybrid interaction assay was performed.

T1 sequence (Q95107 1-275 limits assumed): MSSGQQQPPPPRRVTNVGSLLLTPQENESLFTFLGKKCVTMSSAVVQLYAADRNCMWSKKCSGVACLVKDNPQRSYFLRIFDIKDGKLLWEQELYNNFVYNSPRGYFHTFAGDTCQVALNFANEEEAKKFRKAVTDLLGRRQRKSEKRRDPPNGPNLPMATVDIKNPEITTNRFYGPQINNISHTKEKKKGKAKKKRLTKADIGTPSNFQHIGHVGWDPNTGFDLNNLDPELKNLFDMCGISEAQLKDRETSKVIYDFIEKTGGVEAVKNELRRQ

B1: Dominant-negative mouse RhoT(T35N) fused to the Gal4 DNA-binding domain (pGBT9) (enzyme, not shown: small tags and cut ends)
chain: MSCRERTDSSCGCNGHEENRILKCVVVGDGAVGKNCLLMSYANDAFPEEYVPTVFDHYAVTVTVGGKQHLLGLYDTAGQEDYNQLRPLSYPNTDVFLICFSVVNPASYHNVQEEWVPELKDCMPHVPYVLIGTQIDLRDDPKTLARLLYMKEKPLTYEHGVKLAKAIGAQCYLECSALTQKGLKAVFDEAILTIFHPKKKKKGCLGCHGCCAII
notes: Yeast two-hybrid bait; also called RhoT(T3SN); RhoT DN
As to B1, the binding result was “no binding”.
